Experimental data published in patent US20220242950A1 (CANTARGIA, published 2022).
Numbering of substitutions follows the chain as printed. Read-outs that look alike come from different tables or passages of the source. Blank lines part the entries; values can stand above or below the binder they belong to.

How the values were obtained:
[1] = molecular target: T1, human IL1RAP on the cell surface (human, UniProt Q9NPH3 21-570); experiment: cell-based or functional assay
T1 sequence (looked up): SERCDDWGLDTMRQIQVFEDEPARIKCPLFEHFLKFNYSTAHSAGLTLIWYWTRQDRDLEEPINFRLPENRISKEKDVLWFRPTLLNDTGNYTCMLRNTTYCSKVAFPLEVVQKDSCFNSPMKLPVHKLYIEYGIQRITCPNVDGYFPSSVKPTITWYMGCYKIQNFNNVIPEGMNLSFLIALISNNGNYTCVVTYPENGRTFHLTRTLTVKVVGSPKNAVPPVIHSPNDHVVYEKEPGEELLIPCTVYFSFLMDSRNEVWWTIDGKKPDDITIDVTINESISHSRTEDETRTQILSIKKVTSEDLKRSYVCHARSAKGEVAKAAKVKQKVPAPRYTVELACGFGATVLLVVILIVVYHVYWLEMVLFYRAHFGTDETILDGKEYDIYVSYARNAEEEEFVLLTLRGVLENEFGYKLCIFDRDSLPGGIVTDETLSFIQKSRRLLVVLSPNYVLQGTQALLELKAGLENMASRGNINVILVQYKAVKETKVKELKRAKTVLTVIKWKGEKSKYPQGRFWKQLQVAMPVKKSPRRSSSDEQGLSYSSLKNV

[2] = molecular target: T2, recombinant hIL1RAP Domain1+2+3 (aa21-367) (human, UniProt Q9NPH3 21-367); experiment: bio-layer interferometry, human IL1RAP
T2 construct: Numbering on Uniprot Q9NPH3
T2 sequence (looked up): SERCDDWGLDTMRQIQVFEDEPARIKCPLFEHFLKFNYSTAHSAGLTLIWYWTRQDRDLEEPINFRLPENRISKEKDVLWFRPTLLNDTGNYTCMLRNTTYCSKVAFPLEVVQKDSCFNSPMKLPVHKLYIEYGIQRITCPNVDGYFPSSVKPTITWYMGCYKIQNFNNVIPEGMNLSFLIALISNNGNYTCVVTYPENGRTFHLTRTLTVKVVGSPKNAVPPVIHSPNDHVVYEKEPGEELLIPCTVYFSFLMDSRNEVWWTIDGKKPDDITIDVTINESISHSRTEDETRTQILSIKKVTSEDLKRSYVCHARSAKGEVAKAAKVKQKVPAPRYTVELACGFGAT
Description: (§1) Affinity measurements were done on BLItz™ Label-Free Protein Analysis System from ForteBio, using the Basic Kinetics module in the BLItz Pro 1.3.1.3 software from Molecular Devices. Protein A biosensors were hydrated in blocking buffer (PBS, 0.5% BSA, 0.05% Tween 20, pH 7.4) for minimum 10 min at room temperature before coating. Protein A biosensors were coated with antibodies by dipping the biosensors in 200 μl of antibody solution (10 μg/ml in blocking buffer) for 30 min at room temperature. The sensors were then incubated in 200 μl blocking buffer for at least 10 min before use. […] The baseline was made in blocking buffer with a duration time of 30 sec. Association was made for 120 sec in hIL1RAP followed by 120 sec dissociation in blocking buffer.
KD values for affinity towards human IL1RAP are shown in Table 17 for the de-immunized h48D2 variants. Affinity was measured using bio-layer interferometry. […] See also Table 4 for a direct comparison of 48D2, humanized 48D2, and de-immunized h48D2.

[3] = molecular target: T1, human IL1RAP on the cell surface; experiment: cell-based or functional assay; remark: listed apart in the source
[4] = molecular target: T2, recombinant hIL1RAP Domain1+2+3 …; experiment: bio-layer interferometry, human IL1RAP; remark: listed apart in the source
Description: as §1
The antibodies were characterized for A) binding (ELISA analysis, human and cynomolgus monkey IL1RAP), B) inhibition of cytokine signaling (HEK-Blue™ assay), C) affinity (Bio-layer interferometry), D) size heterogeneity (SE-HPLC) and E) yield (concentration, A280). […] SE-HPLC was performed using standard procedures and PBS as running buffer. Affinity and cytokine inhibition were measured as previously described in Example 10. All 25 humanized clones were analyzed for blocking activity on IL-1α, IL-1β and IL-33 signaling while only the clones that had retained the inhibitory activity similar to chimeric 48D2 were analyzed for IL-36 inhibition.
KD values for affinity towards human IL1RAP are shown in Table 11 for the humanized 48D2 variants. Affinity was measured using bio-layer interferometry. […] See also Table 4 for a direct comparison of chimeric 48D2, humanized 48D2 variant VH5:VL4, and a humanized and de-immunized 48D2 variant VH5.GL:VL4.

[5] = molecular target: T2, recombinant hIL1RAP Domain1+2+3 …; experiment: binding ELISA, coated recombinant hIL1RAP aa21-367
[6] = molecular target: T3, recombinant mf IL1RAP aa21-367 (cynomolgus monkey (Macaca fascicularis), UniProt A0A2K5X5J5 21-367); experiment: binding ELISA, coated recombinant mf IL1RAP aa21-367
T3 construct: also called cynomolgus monkey IL1RAP; cyno IL1RAP
T3 sequence: T2 sequence (looked up) with L183F, T273P, K326T

[7] = molecular target: T2, recombinant hIL1RAP Domain1+2+3 …; experiment: BLI (BLItz), antibody on Protein A biosensor, hIL1RAP (21-367) in solution
Description: as §1
Affinity measurement results are shown in Table 4 for chimeric 48D2, as well as for humanized 48D2 variant VH5:VL4 (see Example 11) and for humanized and de-immunized 48D2 variant VH5.GL:VL4 (see Example 13). kₐ is the association rate constant, for characterization of the antibody binding to the target, kd is the dissociation rate constant, for characterization of the antibody dissociation from the target, and KD is the equilibrium dissociation constant between the antibody and its antigen, the ratio of kd/kₐ. […] The lower the KD value (lower concentration), the higher the affinity.

B2: h48D2 VH5.SK:VL4 (antibody, human IgG1, kappa, L234A L235A, V domains shown)
VH: QEQLEESGGGLVKPGGTLSLTCTVSGPSLSHFDITWIRQAPGKGLEWIGTISPGVSTYYASWAKSRVTISVDTSLNTVSLKLSSVTAADTATYFCARGGVGSSWKAFDLWGPGTLVTISS
VL: ELVMTQSPSSVSASVGDRVTITCQASESISTALAWYQQKPGKAPKLLIYKASTLPSGVPSRFSGSGSGTDFTLTINSLQPEDFATYYCQQGFSSGNVHNAFGGGTKVEIKR
notes: Humanized and de-immunized; also called VL4:VH5.SK
IC50 of IL-1α signaling (HEK-Blue assay) [1]: 0.213 nM | IC50 of IL-1β signaling (HEK-Blue assay) [1]: 0.099 nM | IC50 of IL-33 signaling (HEK-Blue assay) [1]: 5.44 nM | IC50 of IL-36α signaling (HEK-Blue assay) [1]: 0.143 nM | IC50 of IL-36β signaling (HEK-Blue assay) [1]: 0.108 nM | IC50 of IL-36γ signaling (HEK-Blue assay) [1]: 0.17 nM | Kd [2]: 2 nM

B4: h48D2 VH5:VL4 (antibody, human IgG1, kappa, L234A L235A, V domains shown)
VH: B2 VH with K43S
VL: B2 VL
notes: Humanized; also called VL4:VH5; humanized 48D2 variant VH5:VL4
IC50 of IL-1α signaling (HEK-Blue assay) [3]: 6.47 nM | IC50 of IL-33 signaling (HEK-Blue assay) [3]: 2 nM | IC50 of IL-36α signaling (HEK-Blue assay) [3]: ~2.5 pM | IC50 of IL-36β signaling (HEK-Blue assay) [3]: ~0.342 nM | IC50 of IL-36γ signaling (HEK-Blue assay) [3]: 2.83 nM | Kd [4]: 1.67 nM | IC50 [5]: 0.0258 µg/mL | IC50 [6]: 0.028 µg/mL | Kd [7]: 2.74 nM | koff [7]: 0.000172 s⁻¹ | kon [7]: 60200 M⁻¹ s⁻¹

B5: h48D2 VH5.AP:VL5 (antibody, human IgG1, kappa, L234A L235A)
heavy: not shown
light: APVLTQSPATLEASVGDRVTITCQASESISTALAWYQQKPGQPPKLLIYKASTLPSGVPSRFSGSGSGTEFTLTISDLESDDAATYYCQQGFSSGNVHNAFGGGTEVVVKRTVAAPSVFIFPPSDEQLKSGTASVVCLLNNFYPREAKVQWKVDNALQSGNSQESVTEQDSKDSTYSLSSTLTLSKADYEKHKVYACEVTHQGLSSPVTKSFNRGEC
notes: Humanized and de-immunized; also called VL5:VH5.AP
IC50 of IL-1α signaling (HEK-Blue assay) [1]: 0.178 nM | IC50 of IL-1β signaling (HEK-Blue assay) [1]: 0.098 nM | IC50 of IL-33 signaling (HEK-Blue assay) [1]: 1.68 nM | IC50 of IL-36α signaling (HEK-Blue assay) [1]: 0.149 nM | IC50 of IL-36β signaling (HEK-Blue assay) [1]: 0.134 nM | IC50 of IL-36γ signaling (HEK-Blue assay) [1]: 0.191 nM | Kd [2]: 1.96 nM

B7: h48D2 VH5.SK:VL5 (antibody, human IgG1, kappa, L234A L235A)
heavy: not shown
light: B5 light
notes: Humanized and de-immunized; also called VL5:VH5.SK
IC50 of IL-1α signaling (HEK-Blue assay) [1]: 0.172 nM | IC50 of IL-1β signaling (HEK-Blue assay) [1]: 0.061 nM | IC50 of IL-33 signaling (HEK-Blue assay) [1]: 2.87 nM | IC50 of IL-36α signaling (HEK-Blue assay) [1]: 0.136 nM | IC50 of IL-36β signaling (HEK-Blue assay) [1]: 0.125 nM | IC50 of IL-36γ signaling (HEK-Blue assay) [1]: 0.157 nM | Kd [2]: 2.8 nM

B9: h48D2 VH5.SK:VL5.GL (antibody, human IgG1, kappa, L234A L235A)
heavy: not shown
light: B5 light with A1D, P2I, V3Q, L4M, A9S, E12S
notes: Humanized and de-immunized; also called VL5.GL:VH5.SK
IC50 of IL-1α signaling (HEK-Blue assay) [1]: 0.321 nM | IC50 of IL-1β signaling (HEK-Blue assay) [1]: 0.117 nM | IC50 of IL-33 signaling (HEK-Blue assay) [1]: 3.11 nM | IC50 of IL-36α signaling (HEK-Blue assay) [1]: 0.204 nM | IC50 of IL-36β signaling (HEK-Blue assay) [1]: 0.16 nM | IC50 of IL-36γ signaling (HEK-Blue assay) [1]: 0.245 nM | Kd [2]: 2.28 nM

Further binders by falling Kd [2], results first:

IC50 of IL-1α signaling (HEK-Blue assay) [1]: 0.214 nM | IC50 of IL-1β signaling (HEK-Blue assay) [1]: 0.0999 nM | IC50 of IL-33 signaling (HEK-Blue assay) [1]: 2.46 nM | IC50 of IL-36α signaling (HEK-Blue assay) [1]: 0.128 nM | IC50 of IL-36β signaling (HEK-Blue assay) [1]: 0.135 nM | IC50 of IL-36γ signaling (HEK-Blue assay) [1]: 0.129 nM | Kd [2]: 1.87 nM
B6: h48D2 VH5.GL:VL5 (antibody, human IgG1, kappa, L234A L235A)
heavy: not shown
light: B5 light
notes: Humanized and de-immunized; also called VL5:VH5.GL

IC50 of IL-1α signaling (HEK-Blue assay) [1]: 0.209 nM | IC50 of IL-1β signaling (HEK-Blue assay) [1]: 0.122 nM | IC50 of IL-33 signaling (HEK-Blue assay) [1]: 1.48 nM | IC50 of IL-36α signaling (HEK-Blue assay) [1]: 0.132 nM | IC50 of IL-36β signaling (HEK-Blue assay) [1]: 0.146 nM | IC50 of IL-36γ signaling (HEK-Blue assay) [1]: 0.182 nM | Kd [2]: 1.7 nM
B1: h48D2 VH5.AP:VL4 (antibody, human IgG1, kappa, L234A L235A, V domains shown)
VH: B2 VH with A40P, K43S
VL: B2 VL
notes: Humanized and de-immunized; also called VL4:VH5.AP

IC50 of IL-1α signaling (HEK-Blue assay) [1]: 0.204 nM | IC50 of IL-1β signaling (HEK-Blue assay) [1]: 0.107 nM | IC50 of IL-33 signaling (HEK-Blue assay) [1]: 2.97 nM | IC50 of IL-36α signaling (HEK-Blue assay) [1]: 0.178 nM | IC50 of IL-36β signaling (HEK-Blue assay) [1]: 0.162 nM | IC50 of IL-36γ signaling (HEK-Blue assay) [1]: 0.19 nM | Kd [2]: 1.5 nM
B8: h48D2 VH5.AP:VL5.GL (antibody, human IgG1, kappa, L234A L235A)
heavy: not shown
light: B5 light with A1D, P2I, V3Q, L4M, A9S, E12S
notes: Humanized and de-immunized; also called VL5.GL:VH5.AP

IC50 of IL-1α signaling (HEK-Blue assay) [1]: 0.236 nM | IC50 of IL-1β signaling (HEK-Blue assay) [1]: 0.105 nM | IC50 of IL-33 signaling (HEK-Blue assay) [1]: 7.83 nM | IC50 of IL-36α signaling (HEK-Blue assay) [1]: 0.158 nM | IC50 of IL-36β signaling (HEK-Blue assay) [1]: 0.165 nM | IC50 of IL-36γ signaling (HEK-Blue assay) [1]: 0.217 nM | Kd [2]: 0.752 nM
B3: h48D2 VH5:VL5.GL (antibody, human IgG1, kappa, L234A L235A)
heavy: not shown
light: B5 light with A1D, P2I, V3Q, L4M, A9S, E12S
notes: Humanized and de-immunized; also called VL5.GL:VH5
